Experimental data published in paper PMC11018308.
pKd: −log10 of the molar value.

Experiments:
[1] = molecular target: cell-surface mucins (on HeLa cells); assay: flow cytometry on cells; HeLa cells treated with His-tagged mucinases in cold FACS buffer (0.5% BSA in PBS) with 2 mM EDTA and 0.1% benzonase, 30 min on ice (4 °C); EDTA prevents enzyme activity; bound enzyme detected with FITC anti-His; effective (apparent) Kd from fits of normalised MFI
[2] = molecular target: cell-surface mucins (on HeLa cells); assay: flow cytometry on cells (anti-His staining, HeLa); details: 30 min at 4 °C in the presence of EDTA, n = 3 biologically independent replicates, read off a plot

Substance | pKd [1] | pKd ([2]; parent: est. 130 nM) | also measured
ddStcE^W366A, engineered StcE (from UniProt O82882 36-898) (enzyme) | 5.70 | – | –
double deletion StcE (ΔC and ΔINS) (from UniProt O82882) Y457A | – | – | pKd ([2]; parent: est. 1300 nM): 5.89
StcE, zinc metalloprotease (mucinase) from Escherichia coli serotype O157:H7 (from UniProt O82882) Y457W | – | 6.92 | –
StcE, zinc metalloprotease (mucinase) from Escherichia coli serotype O157:H7 (from UniProt O82882) W366F | – | 7.02 | –
StcE, zinc metalloprotease (mucinase) from Escherichia coli serotype O157:H7 (from UniProt O82882) Y457A | – | 6.92 | –
ddStcE^H367A (from UniProt O82882 36-898) (enzyme) | 5.70 | – | –
